The source of these data is article PMC10575594.

A value given as a limit tells only on which side of the number the result lay.

In test [1] the target is human 40S small ribosomal subunit (human) (UniProt P23396). Description: cryo-EM structure.
In test [2] the target is Cy3-labeled human 40S subunit (human) (UniProt P62841). Description: FRET or BRET.

For the substance “Bat-Hp-CoV Nsp1 wild type (natural protein)”, the fraction of 40S complexes with density for the Nsp1 linker and NTD in test [1] was found to be 15%.

In test [2], “Cy5-labeled Bat-Hp-CoV Nsp1 (natural protein)” displayed a fraction of tethered 40S complexes that yielded FRET of 10 to 20%, a dissociation rate constant (koff) of less than 0.01 s⁻¹ and a lifetime of the FRET signal greater than 100 s.

Usually koff stands for the first-order rate constant of dissociation. A high value points to fast dissociation.
